{"source": "patent US10232056B2", "about": "“Method for measuring toxicity of human CSF” (KYOWA HAKKO KIRIN CO., LTD., priority 2014, dated 2019)", "key": {"ICR mice [1]": {"system": "ICR mice", "assay": "Effect of anti-Aβ antibody pretreatment of AD patient CSF on mouse cognitive function impairment (Y-maze test, Example 5)", "format": "in vivo", "conditions": "10 μl intraventricular, FIG. 5", "method": "For the purpose of evaluating a sample that more accurately reflects the actual clinical sample, the cognitive function of mice administered with an AD patient CSF pretreated with 6E4HV0LV0 was measured by Y-maze test.\n6E4HV0LV0 was added to AD patient CSF (Precision Mod) to make the final concentration 1 ng/ml, 10 ng/ml, or 100 ng/ml, and the mixture was incubated at room temperature for about 1 hour.\nArtificial cerebrospinal fluid [artificial spinal fluid (Otsuka Pharmaceutical Co., Ltd.) supplemented with 0.02 w/v % human serum albumin (Sigma-Aldrich)](hereinafter, “vehicle”) was added to AD patient CSF or physiological saline (hereinafter, “Sham”), and the mixture was incubated at room temperature. The prepared sample was preserved at −80° C., and used for the experiment after being thawed at room temperature on the day of the Y-maze testing.\nThe sample (10 μl each) was administered into the cerebral ventricles of ICR mice under isoflurane anesthesia, and each mouse was tested by Y-maze test in the same manner as in Example 1 to determine spontaneous alternation (%). Each sample was administrated in 5 μl dose into each the left and right cerebral ventricles of mice.\nIn the following, the sample with the AD patient CSF plus the vehicle will be identified by the notation “vehicle-AD CSF”. Similar notations are used for other samples."}, "ICR mice [2]": {"system": "ICR mice", "assay": "Effect of anti-Aβ antibody intravenous administration on mouse cognitive function impairment by AD patient CSF (Y-maze test, Example 4)", "format": "in vivo", "conditions": "next day 10 μl AD patient CSF intraventricular, FIG. 4", "method": "Next, mice that had intravenous administration of anti-Aβ oligomer antibody were measured for changes in cognitive function after AD patient CSF administration, using a Y-maze test. As the anti-Aβ oligomer antibody, an anti-Aβ oligomer humanized antibody 6E4HV0LV0 was produced according to the method disclosed in WO2011/016567 and known methods, and used in the experiment.\nICR mice were intravenously administered with 3 mg/kg of human IgG4 (Sigma-Aldrich), or 0.3 mg/kg, 1 mg/kg, or 3 mg/kg of 6E4HV0LV0.\nOn the next day, 10 μl of physiological saline (hereinafter, “Sham”) or the same amount of AD patient CSF (Precision Med) was administered into the cerebral ventricles of the mice under isoflurane anesthesia. Each mouse was then tested by Y-maze test in the same manner as in Example 1 to determine spontaneous alternation (%). The AD patient CSF and the physiological saline were administrated in 5 μl dose into each of the left and right cerebral ventricles.\nIn the following, mice that had intravenous administration of human IgG4, and intraventricular administration of Sham will be identified by using the notation “human IgG4 i.v.-Sham administered group.” Similar notations are used for mice administered with other samples."}, "ICR mice [3]": {"system": "ICR mice", "assay": "Blind measurement of changes in cognitive function of mice after 6E4HV0LV0 pretreatment of CSF (Y-maze test, Example 6)", "format": "in vivo, mouse", "conditions": "for Percentage improvement by 6E4HV0LV0 treatment (%): 10 μl intraventricular; for improvement of spontaneous alternation by 6E4HV0LV0 pretreatment: 10 ng/ml", "method": "The cognitive function of mice administered with multiple normal CSFs or AD patient CSFs was measured in blind experiment by performing a Y-maze test in the same manner as in Example 1. The effect of 6E4HV0LV0 pretreatment was also examined at the same time. The experiment was conducted by separating testers who is responsible for dispensing normal CSFs or AD patient CSFs and preparing a 6E4HV0LV0-pretreated AD patient CSF for blind experiment, and who is responsible for administering the samples to mice, and conducting the Y-maze test.\nTester (A) randomly assigned numbers to the dispensed normal CSFs (Precision Med) and AD patient CSFs (Precision Med) for blind experiment. For the AD patient CSFs, samples were also prepared by adding 6E4HV0LV0 to each dispensed CSF to make the final concentration 10 ng/ml, and incubating the mixture at room temperature for about 1 hour. The dispensed and prepared CSF samples were all preserved at −80° C. until the day of the Y-maze testing.\nOn the day of the Y-maze testing, tester (B) received the samples prepared by tester (A) for blind experiment, and thawed the samples at room temperature. Each sample (10 μl) or physiological saline (10 μl; hereinafter, “Sham”) was administered into the cerebral ventricles of ICR mice under isoflurane anesthesia, and the mice were tested by Y-maze test in the same manner as in Example 1 to determine spontaneous alternation (%). The sample and the physiological saline were administrated in 5 μl dose into each of the left and right cerebral ventricles of mice.\nA Y-maze test that used the AD patient CSFs pretreated with 6E4HV0LV0 was conducted at the same time. Percentage improvement of mouse spontaneous alternation by 6E4HV0LV0 pretreatment was calculated for each mouse by using the Formula (3) below. The results are shown under the column heading “Percentage improvement by 6E4HV0LV0 treatment (%)” in Table 1. Percentage improvement (%) of mouse spontaneous alternation by 6E4HV0LV0 pretreatment={(spontaneous alternation of mouse administered with AD patient CSF pretreated with 6E4HV0LV0)−(spontaneous alternation of mouse administered with the same AD patient CSF without 6E4HV0LV0 pretreatment)}/{(spontaneous alternation of Sham administered group)−(spontaneous alternation of mouse administered with the same AD patient CSF without 6E4HV0LV0 pretreatment)}×100 Formula (3)"}}}
{"molecule": "6E4HV0LV0: anti-Aβ oligomer humanized antibody, VH SEQ ID NO: 1, VL SEQ ID NO: 2, produced according to WO2011/016567 (antibody, V domains shown) VH: QVQLVQSGAEVKKPGASVKVSCKASGYTFTSYWMHWVRQAPGQGLEWMGEINPRNGGTNNNENFKRRVTITADTSTSTAYMELSSLRSEDTAVYYCARDGNYDPFAYWGQGTLVTVSS VL: DIVMTQSPLSLPVTPGEPASISCRSSQSLVHSNGNTYLHWYLQKPGQSPQLLIYKVSNRFSGVPDRFSGSGSGTDFTLKISRVEAEDVGVYYCSQSTHVPPYTFGQGTKLEIK", "values": [{"measurement": "spontaneous alternation compared to the vehicle-AD CSF administered group", "setting": "ICR mice [1]; AD patient CSF pretreated at final concentration of 10 ng/ml or 100 ng/ml", "result": "higher"}, {"measurement": "spontaneous alternation compared to the vehicle-Sham administered group", "setting": "ICR mice [1]; AD patient CSF pretreated at final concentration of 100 ng/ml", "result": "recovering to the same levels"}, {"measurement": "spontaneous alternation compared to the human IgG4 i.v.-AD CSF administered group", "setting": "ICR mice [2]; 3 mg/kg i.v.", "result": "significantly higher"}, {"measurement": "spontaneous alternation compared to the human IgG4 i.v.-Sham administered group", "setting": "ICR mice [2]; 3 mg/kg i.v.", "result": "recovering to the same levels"}, {"measurement": "spontaneous alternation, dose response", "setting": "ICR mice [2]; 6E4HV0LV0 0.3, 1 or 3 mg/kg i.v.", "result": "increased with increase in the dose"}, {"measurement": "Percentage improvement by 6E4HV0LV0 treatment (%)", "setting": "ICR mice [3]; AD patient CSF 8006_Visit 3 pretreated with 10 ng/ml", "result": 80.2, "unit": "%"}, {"measurement": "Percentage improvement by 6E4HV0LV0 treatment (%)", "setting": "ICR mice [3]; AD patient CSF 8014_Visit 4 pretreated with 10 ng/ml", "result": 59.7, "unit": "%"}, {"measurement": "Percentage improvement by 6E4HV0LV0 treatment (%)", "setting": "ICR mice [3]; AD patient CSF 8026_Visit 2 pretreated with 10 ng/ml", "result": 14.5, "unit": "%"}, {"measurement": "Percentage improvement by 6E4HV0LV0 treatment (%)", "setting": "ICR mice [3]; AD patient CSF 8029_Visit 2 pretreated with 10 ng/ml", "result": "−11.8", "unit": "%"}, {"measurement": "Percentage improvement by 6E4HV0LV0 treatment (%)", "setting": "ICR mice [3]; AD patient CSF 8056_Visit 9 pretreated with 10 ng/ml", "result": 86.8, "unit": "%"}, {"measurement": "Percentage improvement by 6E4HV0LV0 treatment (%)", "setting": "ICR mice [3]; AD patient CSF 8057_Visit 8 pretreated with 10 ng/ml", "result": 59.3, "unit": "%"}, {"measurement": "Percentage improvement by 6E4HV0LV0 treatment (%)", "setting": "ICR mice [3]; AD patient CSF 8060_Visit 6 pretreated with 10 ng/ml", "result": 46.0, "unit": "%"}, {"measurement": "Percentage improvement by 6E4HV0LV0 treatment (%)", "setting": "ICR mice [3]; AD patient CSF 8061_Visit 5 pretreated with 10 ng/ml", "result": 65.6, "unit": "%"}, {"measurement": "Percentage improvement by 6E4HV0LV0 treatment (%)", "setting": "ICR mice [3]; AD patient CSF 8076_Visit 8 pretreated with 10 ng/ml", "result": 68.3, "unit": "%"}, {"measurement": "Percentage improvement by 6E4HV0LV0 treatment (%)", "setting": "ICR mice [3]; AD patient CSF 8091_Visit 5 pretreated with 10 ng/ml", "result": 56.3, "unit": "%"}, {"measurement": "Percentage improvement by 6E4HV0LV0 treatment (%)", "setting": "ICR mice [3]; AD patient CSF 8092_Visit 3 pretreated with 10 ng/ml", "result": 87.7, "unit": "%"}, {"measurement": "Percentage improvement by 6E4HV0LV0 treatment (%)", "setting": "ICR mice [3]; AD patient CSF 8108_Visit 6 pretreated with 10 ng/ml", "result": 82.0, "unit": "%"}, {"measurement": "Percentage improvement by 6E4HV0LV0 treatment (%)", "setting": "ICR mice [3]; AD patient CSF 8109_Visit 5 pretreated with 10 ng/ml", "result": 90.7, "unit": "%"}, {"measurement": "Percentage improvement by 6E4HV0LV0 treatment (%)", "setting": "ICR mice [3]; AD patient CSF 8189_Visit 3 pretreated with 10 ng/ml", "result": 83.1, "unit": "%"}, {"measurement": "Percentage improvement by 6E4HV0LV0 treatment (%)", "setting": "ICR mice [3]; AD patient CSF 8211_Visit 2 pretreated with 10 ng/ml", "result": 90.0, "unit": "%"}, {"measurement": "improvement of spontaneous alternation by 6E4HV0LV0 pretreatment", "setting": "ICR mice [3]; in 6 out of the 15 AD patient CSF samples", "result": "≥ 40", "unit": "%"}, {"measurement": "improvement of spontaneous alternation by 6E4HV0LV0 pretreatment", "setting": "ICR mice [3]; in 7 out of the 15 AD patient CSF samples", "result": "≥ 80", "unit": "%"}, {"measurement": "effect of 6E4HV0LV0 pretreatment on cognitive function impairment by normal CSF", "setting": "ICR mice [3]; the one normal CSF (1 out of 11) that impaired cognitive function", "result": "did not improve"}]}
